Laboratory results reported in US20170320960A1 (AbbVie / Abbott, published 2017).
Like-named read-outs stand apart in the source and are kept apart here.

T1: hMFI2 Tf-like Domain 1 (TLD1), amino acids 20-357, displayed on yeast (human, UniProt P08582 20-357)
T1 construct: also called TFLD1
T1 sequence: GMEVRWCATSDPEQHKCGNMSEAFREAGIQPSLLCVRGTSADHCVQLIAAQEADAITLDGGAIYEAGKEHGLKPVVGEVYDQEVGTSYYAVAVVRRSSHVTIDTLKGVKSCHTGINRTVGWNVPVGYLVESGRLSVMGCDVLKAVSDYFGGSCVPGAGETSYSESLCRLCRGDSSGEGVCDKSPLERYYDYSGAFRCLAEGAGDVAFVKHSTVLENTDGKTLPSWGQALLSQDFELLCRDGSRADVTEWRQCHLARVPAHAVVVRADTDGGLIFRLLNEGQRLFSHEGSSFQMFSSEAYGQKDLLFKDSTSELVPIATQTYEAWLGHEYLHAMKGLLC

B1: SC57.7 (antibody, V domains shown)
VH: GVQVVESGGGVVQPGGSLKLSCAASGFTFSSYAMSWVRQTPEKRLEWVAYLSRGGGSTYYLDTVKGRFTISRDNAKNTLYLQMNSLKSEDTAMYYCARLDGYNWYFDVWGAGTPVTVSS
VL: DIVMSQSPSSLAVSAGEKVTMSCKSSQSLLHSRIRKNYLAWYQQKPGQSPKLLIYWASTRESGVPDRFTGSGSGTDFTLTISSVQAEDLAVYYCKQSYNLFTFGGGTKLEIK
B2: SC57.48 (antibody, V domains shown)
VH: B1 VH
VL: B1 VL
B3: SC57.2 (antibody, V domains shown)
VH: QVQLKQSGPGLVQPSQSLSITCTVSGFSLTDYGVHWVRQSPGKGLDWLGVIWSGGNTDYNAAFISRLSISKDNSKSQIFFEMNSLQDTDTAIYYCARQLHYYGPFAYWGQGTLVTVSA
VL: QIVLTQSPAIMSASPGEKVTMTCSASSSVSYMHWYQQKSGTSPKRWIYDTSKLASGVPVRFSGSGSGTSYSLTISSIEADDAATYYCQQWSRTPPTFGGGTKLEIK
B4: SC57.27 (antibody, V domains shown)
VH: ELKLVESGGDLVKPGGSLKLSCAASGFSFNNYAMSWVRQTPEKRLEWVASISSGGTTFYPDSVKGRFTMSRDHARNILYLQMNSLRSEDTAMYYCVRGQWLSLYSMDYWGQGTSVTVSS
VL: DIQMTQSPVSLSASVGETVTITCRASEIIYSYLAWYQQKQGKSPQLLVYNAKTLAEGVPSRFSGSGSGTQFSLKINSLQPEDFGTYYCQHHYGVPVTFGAGTKLELK

Key:
[1] = biological target: T1, hMFI2 Tf-like Domain 1 (TLD1), amino …; assay: flow cytometry on yeast displaying hMFI2 domains
[2] = biological target: T1, hMFI2 Tf-like Domain 1 (TLD1), amino …; assay: flow cytometry on yeast displaying hMFI2 domains; remark: listed apart in the source

Row | Binder | binding result [1] | binding result [2]
1 | B1 | binds | –
2 | B2 | – | binds
3 | B3 | binds | –
4 | B4 | binds | –
